Experiment [1] has as its target T1, c-Kit on KU812 cells (UniProt P10721 26-976, limits assumed).
T1 construct: whole, on cells; also called c-Kit receptor; CD117
Description: flow cytometry on KU812 cells, which carry both c-Kit and CD203c; signal not separated by target. The protocol: (§1) All treatments were performed on cells seeded in T75 flasks at a seeding density of 0.3e6/ml. Cells were cultured in the presence of 80 ng/ml of SCF and treated with 20 ng/ml of IL3 24 hours prior to antibody staining. Following SCF/IL3 treatment, cells were harvested and stained with live dead stain (Zombie UV Biolegend 423108). Cells were then stained with a titration of anti-CD203c antibodies/bispecifics or respective isotype controls in a 5-fold dilution series starting at 50 μg/mL and detected with Anti human-Fc AF647 antibody (JIR 109-605-098). Samples were subsequently run on a Yeti analyzer, gating on 10K live cells. Subsequent analysis was performed using FlowJo software and data represented as MFI (median fluorescent intensity).
(§2) The purified proteins were assessed for co-operative binding to both targets, CD203c and c-Kit, on KU812 cells. […] This enhanced binding translates to potent inhibition of c-Kit receptor phosphorylation by the F6/MH1 bispecific molecule when compared to monovalent anti-c-kit, which is shown in FIG. 8.
(In general: A flow cytometer gives signals particle by particle.)

The target of experiment [2] is T2, human CD203c expressed on the surface of KU812 cells (human, UniProt O14638 1-875).
T2 construct: whole, on cells; also called cell-surface CD203c; cell surface CD203c on KU812 cells
T2 sequence (looked up): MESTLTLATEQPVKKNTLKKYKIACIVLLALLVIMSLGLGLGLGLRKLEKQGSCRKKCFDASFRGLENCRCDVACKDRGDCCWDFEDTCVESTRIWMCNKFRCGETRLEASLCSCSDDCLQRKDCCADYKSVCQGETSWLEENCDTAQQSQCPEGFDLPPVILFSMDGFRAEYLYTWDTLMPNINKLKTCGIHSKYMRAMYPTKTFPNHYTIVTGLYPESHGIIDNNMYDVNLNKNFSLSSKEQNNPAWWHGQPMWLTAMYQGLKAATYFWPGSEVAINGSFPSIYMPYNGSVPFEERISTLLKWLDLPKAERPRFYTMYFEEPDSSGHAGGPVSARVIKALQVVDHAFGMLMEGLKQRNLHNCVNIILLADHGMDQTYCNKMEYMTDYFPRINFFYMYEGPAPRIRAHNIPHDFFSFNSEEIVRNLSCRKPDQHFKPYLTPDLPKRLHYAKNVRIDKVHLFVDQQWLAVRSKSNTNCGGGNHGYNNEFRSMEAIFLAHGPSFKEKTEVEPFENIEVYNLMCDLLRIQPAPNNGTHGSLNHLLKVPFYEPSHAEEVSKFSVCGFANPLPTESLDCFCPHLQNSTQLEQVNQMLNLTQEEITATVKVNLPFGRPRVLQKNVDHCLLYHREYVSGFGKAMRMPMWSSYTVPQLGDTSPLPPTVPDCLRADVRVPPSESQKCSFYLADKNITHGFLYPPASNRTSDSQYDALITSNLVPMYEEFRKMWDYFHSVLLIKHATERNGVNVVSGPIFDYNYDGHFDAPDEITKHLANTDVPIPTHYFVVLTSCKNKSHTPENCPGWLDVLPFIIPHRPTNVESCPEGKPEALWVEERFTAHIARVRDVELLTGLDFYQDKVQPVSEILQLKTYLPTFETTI
The description is as above. The protocol:
as §1, §2

In experiment [3] the target is T3, biotinylated cynomolgus CD203c (bio-cyCD203c, Icosagen) (cynomolgus monkey, UniProt A0A2K5TKP4 31-874, biotinylated (site not stated)).
T3 construct: Captured on a Biotin CAPture chip for SPR; also called cyno CD203c
T3 sequence: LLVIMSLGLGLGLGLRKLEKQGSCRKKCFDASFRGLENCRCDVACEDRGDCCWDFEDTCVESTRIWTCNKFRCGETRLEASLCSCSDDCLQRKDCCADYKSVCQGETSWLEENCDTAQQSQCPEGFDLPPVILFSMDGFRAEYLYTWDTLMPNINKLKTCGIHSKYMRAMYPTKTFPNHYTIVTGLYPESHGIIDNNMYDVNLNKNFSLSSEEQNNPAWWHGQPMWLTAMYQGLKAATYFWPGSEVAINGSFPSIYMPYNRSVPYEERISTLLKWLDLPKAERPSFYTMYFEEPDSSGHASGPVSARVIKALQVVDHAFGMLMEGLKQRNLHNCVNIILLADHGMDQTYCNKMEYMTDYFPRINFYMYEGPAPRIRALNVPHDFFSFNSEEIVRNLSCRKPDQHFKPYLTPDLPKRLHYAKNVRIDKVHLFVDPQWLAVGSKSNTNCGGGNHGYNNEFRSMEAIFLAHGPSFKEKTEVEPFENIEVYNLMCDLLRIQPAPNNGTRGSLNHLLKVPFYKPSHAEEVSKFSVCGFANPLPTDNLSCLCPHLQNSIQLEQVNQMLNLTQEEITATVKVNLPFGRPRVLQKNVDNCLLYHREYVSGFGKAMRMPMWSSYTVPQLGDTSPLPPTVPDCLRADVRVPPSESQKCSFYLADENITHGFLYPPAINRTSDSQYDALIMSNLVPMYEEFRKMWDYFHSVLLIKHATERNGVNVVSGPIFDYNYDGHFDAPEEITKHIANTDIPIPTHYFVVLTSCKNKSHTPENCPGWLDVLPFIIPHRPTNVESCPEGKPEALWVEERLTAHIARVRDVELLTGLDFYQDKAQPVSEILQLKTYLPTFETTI
Description: SPR, single-cycle protocol, Bio-cyCD203c; table gives Rmax, Chi2 and KD only. A general note: In SPR one partner is held on a chip, and binding of the other changes the refractive index at the surface.

Another experiment addresses human c-Kit (SPR) (human, UniProt P10721 26-520, limits assumed). Description: SPR, single-cycle kinetics, Human C-kit.
For a further experiment, the target named is cyno c-Kit (SPR) (cyno, UniProt F6V858 26-520 (rhesus entry)). The experiment in a line: SPR, single-cycle kinetics, Cynomolgus C-kit.
cyno c-Kit (SPR), sequence (chain, as listed by the source): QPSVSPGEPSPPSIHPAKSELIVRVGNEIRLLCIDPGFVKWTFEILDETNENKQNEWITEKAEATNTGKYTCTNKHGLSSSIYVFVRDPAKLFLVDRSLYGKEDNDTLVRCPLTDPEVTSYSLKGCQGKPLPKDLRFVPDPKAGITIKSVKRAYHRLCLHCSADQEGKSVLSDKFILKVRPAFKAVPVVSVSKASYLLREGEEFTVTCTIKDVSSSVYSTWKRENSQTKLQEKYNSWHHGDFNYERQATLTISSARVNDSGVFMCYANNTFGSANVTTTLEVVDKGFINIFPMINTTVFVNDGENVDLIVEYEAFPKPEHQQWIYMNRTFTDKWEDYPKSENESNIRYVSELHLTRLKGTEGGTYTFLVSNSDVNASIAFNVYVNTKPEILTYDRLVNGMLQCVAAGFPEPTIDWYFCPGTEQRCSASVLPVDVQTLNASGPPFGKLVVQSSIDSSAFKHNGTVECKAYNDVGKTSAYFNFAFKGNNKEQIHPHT
Experiment [4] deals with T1, c-Kit on KU812 cells. The experiment in a line: flow cytometry on KU812 cells, which carry both c-Kit and CD203c (median fluorescence intensity); signal not separated by target; no unit follows the number, the axis is in nM and the dotted line stands at about 0.2. On the procedure: as §1
Experiment [5] addresses T2, human CD203c expressed on the surface …. Described as above. The protocol: as §1
In experiment [6] the target is T4, biotinylated human CD203c (bio-huCD203c, Acro, Cat. nr. H52H4) (human, UniProt O14638 49-875, limits assumed, biotinylated (site not stated)).
T4 construct: Captured on a Biotin CAPture chip for SPR
T4 sequence (looked up): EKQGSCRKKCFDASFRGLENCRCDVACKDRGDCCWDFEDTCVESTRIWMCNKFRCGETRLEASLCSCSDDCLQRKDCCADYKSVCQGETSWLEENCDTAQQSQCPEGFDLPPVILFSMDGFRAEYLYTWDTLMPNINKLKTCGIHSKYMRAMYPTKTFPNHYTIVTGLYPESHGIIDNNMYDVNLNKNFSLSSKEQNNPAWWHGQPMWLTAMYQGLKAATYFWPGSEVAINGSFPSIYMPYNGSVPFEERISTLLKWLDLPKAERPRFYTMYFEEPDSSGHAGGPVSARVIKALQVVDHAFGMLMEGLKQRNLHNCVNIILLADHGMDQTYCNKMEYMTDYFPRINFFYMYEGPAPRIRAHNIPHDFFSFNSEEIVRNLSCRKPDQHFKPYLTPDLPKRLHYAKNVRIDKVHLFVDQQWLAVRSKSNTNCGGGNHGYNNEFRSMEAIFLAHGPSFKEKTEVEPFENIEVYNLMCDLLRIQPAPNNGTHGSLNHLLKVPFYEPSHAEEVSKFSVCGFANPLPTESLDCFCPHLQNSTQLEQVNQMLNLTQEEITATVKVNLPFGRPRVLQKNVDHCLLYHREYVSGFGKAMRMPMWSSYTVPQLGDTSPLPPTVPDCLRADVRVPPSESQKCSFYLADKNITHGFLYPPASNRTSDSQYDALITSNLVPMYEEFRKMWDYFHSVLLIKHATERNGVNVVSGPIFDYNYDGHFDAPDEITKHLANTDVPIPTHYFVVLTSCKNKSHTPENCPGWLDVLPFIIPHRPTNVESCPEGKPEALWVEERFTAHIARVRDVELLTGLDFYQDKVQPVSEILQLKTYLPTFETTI
The experiment in a line: SPR, single-cycle protocol, Bio-huCD203c; table gives Rmax, Chi2 and KD only.

Experiment [7] addresses T3, biotinylated cynomolgus CD203c …. The experiment in a line: SPR (Biacore), biotinylated CD203c captured on the chip, Fab as analyte 1000 - 7.81 nM; response-versus-concentration fits in FIG. 11A-11C. The protocol:
(§3) Biotinylated versions of the CD203c proteins were captured on a BiotinCap chip, and the antibodies injected in-solution in 2-fold serial dilutions. An SPR affinity determination assay was carried out on a BIAcore T20 using the conditions described below: [0212] […] Ligand Capture—biotinylated antigen: bio-huCD203c (Acro, Cat. nr. H52H4) and bio-cyCD203c (Icosagen) at 20 nM and 10 nM, respectively, in 1×HBS-EP+pH 7.4, on flow cell 2 over 1 min at 10 μl/min [0215] […] Complete blank assay runs without analyte antibody were included as blank reference. [0216] […] Regeneration: Baseline levels were restored using the regeneration solutions provided in the Biotin CAPture kit [0218] SPR running buffer: 1×HBS-EP+pH 7.4 (Cytiva; cat. nr. BR100669) [0219] Analysis: Data was analyzed using the Biacore Insight Evaluation Software by the steady state affinity model or the 1:1 binding model. Sensorgrams were referenced to flow cell 1 and the 0 nM concentration cycle.

Experiment [8] addresses T4, biotinylated human CD203c …. The experiment is described as above. The protocol:
as §3

The record followed here is US20260028424A1 (GRANULAR THERAPEUTICS, published 2026).

In general, Kd refers to the equilibrium constant for the complex coming apart. Read a low Kd as a tighter complex. As a reminder, the koff is the first-order rate constant of dissociation. The low end stands for slow dissociation, the high end for fast dissociation. For orientation: kon means the rate constant with which the complex forms. In general, EC50 refers to the concentration at which the effect is half-maximal. Low readings indicate greater potency, high ones weaker potency.

Positions count from the first letter of the chain named.

human c-Kit (SPR), sequence (P10721 26-520 limits assumed): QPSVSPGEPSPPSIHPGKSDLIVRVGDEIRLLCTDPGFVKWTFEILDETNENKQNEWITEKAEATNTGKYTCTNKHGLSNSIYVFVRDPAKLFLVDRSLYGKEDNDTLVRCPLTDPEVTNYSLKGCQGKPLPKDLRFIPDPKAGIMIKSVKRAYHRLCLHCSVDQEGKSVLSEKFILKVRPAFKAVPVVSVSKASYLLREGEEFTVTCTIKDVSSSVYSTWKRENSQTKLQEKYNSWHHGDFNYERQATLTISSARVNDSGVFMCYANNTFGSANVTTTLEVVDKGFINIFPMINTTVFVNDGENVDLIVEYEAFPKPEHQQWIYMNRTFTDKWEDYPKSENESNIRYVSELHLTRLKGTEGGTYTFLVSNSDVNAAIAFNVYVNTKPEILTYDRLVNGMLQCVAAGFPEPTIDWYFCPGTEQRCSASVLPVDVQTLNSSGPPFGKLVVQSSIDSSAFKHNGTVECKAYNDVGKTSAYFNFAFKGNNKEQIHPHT
T1 sequence (P10721 26-976 limits assumed): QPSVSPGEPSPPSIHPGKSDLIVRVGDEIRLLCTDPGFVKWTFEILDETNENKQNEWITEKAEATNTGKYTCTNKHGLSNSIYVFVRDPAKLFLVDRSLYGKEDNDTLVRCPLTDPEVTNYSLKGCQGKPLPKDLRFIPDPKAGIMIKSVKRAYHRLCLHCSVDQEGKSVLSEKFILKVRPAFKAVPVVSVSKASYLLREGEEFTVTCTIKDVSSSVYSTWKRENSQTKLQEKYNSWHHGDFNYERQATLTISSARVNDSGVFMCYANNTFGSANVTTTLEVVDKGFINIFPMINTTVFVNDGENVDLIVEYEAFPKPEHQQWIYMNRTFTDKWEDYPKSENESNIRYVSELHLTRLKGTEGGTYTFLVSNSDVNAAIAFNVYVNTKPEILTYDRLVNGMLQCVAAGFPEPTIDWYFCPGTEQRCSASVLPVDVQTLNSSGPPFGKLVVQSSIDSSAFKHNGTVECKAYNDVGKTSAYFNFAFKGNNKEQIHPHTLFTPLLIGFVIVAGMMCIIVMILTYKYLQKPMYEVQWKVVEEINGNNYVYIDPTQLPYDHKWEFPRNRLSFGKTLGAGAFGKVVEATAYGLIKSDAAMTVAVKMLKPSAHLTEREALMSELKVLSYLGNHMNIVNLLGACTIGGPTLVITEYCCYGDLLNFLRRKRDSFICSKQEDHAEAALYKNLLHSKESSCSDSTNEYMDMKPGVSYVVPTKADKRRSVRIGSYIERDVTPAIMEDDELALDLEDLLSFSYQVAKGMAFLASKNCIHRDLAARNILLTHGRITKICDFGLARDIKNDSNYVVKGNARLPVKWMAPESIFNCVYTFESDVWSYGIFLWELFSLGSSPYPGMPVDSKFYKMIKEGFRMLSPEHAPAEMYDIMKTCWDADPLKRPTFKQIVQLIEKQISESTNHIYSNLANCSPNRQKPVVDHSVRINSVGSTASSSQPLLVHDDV

B1: 1.27/MH1 common light chain bispecific (anti-CD203c 1.27 x anti-c-Kit MH1) (bispecific antibody, V domains shown)
VH 1: QVQLVQSGAEVKKPGASVKVSCKASGYTFTDYYMNWVRQAPGQGLEWMGRIYPGSGNTYYAQKFQGRVTMTRDTSTSTVYMELSSLRSEDTAVYYCARGVYYYDYWGQGTLVTVSS
VH 2: EVQLVQSGAEVKKPGESLKISCKGSGYRFTSYWIGWVRQMPGKGLEWMGIIYPGDSDTRYSPSFQGQVTISADKSISTAYLQWSSLKASDTAMYYCARKDYYYYAMDVWGQGTTVTVSS
VL: DIQMTQSPSSLSASVGDRVTITCRASQGIRTNLAWFQQKPGKAPKSLIYAASSLQSGVPSRFSGSGSGTDFTLTISSLQPEDFATYYCQQYNSYPRTFGGGTKVEIK
notes: Knob-in-hole IgG1null bispecific with human Ckappa
For B1, the binding result (in the experiment with c-Kit on KU812 cells [1]; in experiment [2]) was “binds” each time.

B2: MH1_C/F6.12_D bispecific (pI-engineered) (bispecific antibody, V domains shown)
VH 1: B1 VH 1 with K13E, K63N
VH 2: B1 VH 2 with E1Q, T30A, Y32N, I50E, D57N, S85R, Y104G, A105I
VL: B1 VL
notes: as for B1
As to B2, the Kd in [3] was determined as 63.1 nM; with human c-Kit (SPR), 43 nM; with cyno c-Kit (SPR), 52.3 nM; in experiment [6], 79.2 nM. Besides, the dissociation rate constant (koff) is 0.00919 s⁻¹ with human c-Kit (SPR) and 0.0152 s⁻¹ in the experiment with cyno c-Kit (SPR). Also, the kon worked out at 214000 M⁻¹ s⁻¹ with human c-Kit (SPR) and 291000 M⁻¹ s⁻¹ with cyno c-Kit (SPR). The EC50 (in the experiment with c-Kit on KU812 cells [4]; in experiment [5]) was 0.214 nM in each case.

B3: 1.27-Fab (Fab, V domains shown)
VH: B1 VH 2
VL: B1 VL
Turning to B3, the values for the Kd in [7] and in [8] were 387 nM and 705 nM, respectively.
